Measured values from US20260242735A1 (UNIVERSIT T BASEL, published 2026).

Experiments:
Experiment in all cases: flow cytometry, transfected cells
human CD33 P46D = human CD33 P46D (human, UniProt P20138 18-364)
human CD33 N20V = human CD33 N20V (human, UniProt P20138 18-364)
human CD33 N20E = human CD33 N20E (human, UniProt P20138 18-364)
human CD33 F21I = human CD33 F21I (human, UniProt P20138 18-364)
human CD33 W22L = human CD33 W22L (human, UniProt P20138 18-364)
human CD33 N20T = human CD33 N20T (human, UniProt P20138 18-364)
human CD33 N20W = human CD33 N20W (human, UniProt P20138 18-364)
human CD33 P19D = human CD33 P19D (human, UniProt P20138 18-364)
human CD33 N20Y = human CD33 N20Y (human, UniProt P20138 18-364)
human CD33 N20G = human CD33 N20G (human, UniProt P20138 18-364)
human CD33 N20Q = human CD33 N20Q (human, UniProt P20138 18-364)
human CD33 P46Y = human CD33 P46Y (human, UniProt P20138 18-364)
human CD33 P46R = human CD33 P46R (human, UniProt P20138 18-364)
human CD33 P46F = human CD33 P46F (human, UniProt P20138 18-364)
human CD33 F21S = human CD33 F21S (human, UniProt P20138 18-364)
human CD33 W22N = human CD33 W22N (human, UniProt P20138 18-364)
human CD33 N20P = human CD33 N20P (human, UniProt P20138 18-364)

Measured: binding result

Chain of human CD33 N20Y (P20138 18-364 N20Y limits assumed): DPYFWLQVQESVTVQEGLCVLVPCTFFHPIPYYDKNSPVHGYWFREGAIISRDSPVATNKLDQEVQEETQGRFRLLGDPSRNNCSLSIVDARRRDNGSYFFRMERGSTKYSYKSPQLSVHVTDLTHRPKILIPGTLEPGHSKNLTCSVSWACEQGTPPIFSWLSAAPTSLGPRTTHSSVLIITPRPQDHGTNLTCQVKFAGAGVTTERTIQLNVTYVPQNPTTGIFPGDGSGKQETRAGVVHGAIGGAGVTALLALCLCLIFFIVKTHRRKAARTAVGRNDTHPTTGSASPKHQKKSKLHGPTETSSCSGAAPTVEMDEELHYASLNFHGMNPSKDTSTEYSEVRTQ
Chain of human CD33 N20T (P20138 18-364 N20T limits assumed): as the sequence (P20138 18-364 N20Y limits assumed) above, with Y3T counted along it
Chain of human CD33 N20Q (P20138 18-364 N20Q limits assumed): as the sequence (P20138 18-364 N20Y limits assumed) above, with Y3Q counted along it
Chain of human CD33 P46Y (P20138 18-364 P46Y limits assumed): as the sequence (P20138 18-364 N20Y limits assumed) above, with Y3N, P29Y counted along it
Chain of human CD33 P46R (P20138 18-364 P46R limits assumed): as the sequence (P20138 18-364 N20Y limits assumed) above, with Y3N, P29R counted along it
Chain of human CD33 N20W (P20138 18-364 N20W limits assumed): as the sequence (P20138 18-364 N20Y limits assumed) above, with Y3W counted along it
Chain of human CD33 F21S (P20138 18-364 F21S limits assumed): as the sequence (P20138 18-364 N20Y limits assumed) above, with Y3N, F4S counted along it
Chain of human CD33 N20P (P20138 18-364 N20P limits assumed): as the sequence (P20138 18-364 N20Y limits assumed) above, with Y3P counted along it
Chain of human CD33 N20G (P20138 18-364 N20G limits assumed): as the sequence (P20138 18-364 N20Y limits assumed) above, with Y3G counted along it
Chain of human CD33 P46F (P20138 18-364 P46F limits assumed): as the sequence (P20138 18-364 N20Y limits assumed) above, with Y3N, P29F counted along it
Chain of human CD33 W22L (P20138 18-364 W22L limits assumed): as the sequence (P20138 18-364 N20Y limits assumed) above, with Y3N, W5L counted along it
Chain of human CD33 W22N (P20138 18-364 W22N limits assumed): as the sequence (P20138 18-364 N20Y limits assumed) above, with Y3N, W5N counted along it
Chain of human CD33 N20E (P20138 18-364 N20E limits assumed): as the sequence (P20138 18-364 N20Y limits assumed) above, with Y3E counted along it
Chain of human CD33 N20V (P20138 18-364 N20V limits assumed): as the sequence (P20138 18-364 N20Y limits assumed) above, with Y3V counted along it
Chain of human CD33 P46D (P20138 18-364 P46D limits assumed): as the sequence (P20138 18-364 N20Y limits assumed) above, with Y3N, P29D counted along it
Chain of human CD33 P19D (P20138 18-364 P19D limits assumed): as the sequence (P20138 18-364 N20Y limits assumed) above, with P2D, Y3N counted along it
Chain of human CD33 F21I (P20138 18-364 F21I limits assumed): as the sequence (P20138 18-364 N20Y limits assumed) above, with Y3N, F4I counted along it

B1: Refmab #3 (antibody, human IgG1, V domains shown)
VH: QVQLVQSGAEVKKPGSSVKVSCKASGYTFTDYNMHWVRQAPGQGLEWIGYIYPYNGGTGYNQKFKSKATITADESTNTAYMELSSLRSEDTAVYYCARGRPAMDYWGQGTLVTVSS
VL: DIQMTQSPSSLSASVGDRVTITCRASESVDNYGISFMNWFQQKPGKAPKLLIYAASNQGSGVPSRFSGSGSGTDFTLTISSLQPDDFATYYCQQSKEVPWTFGQGTKVEIK
no binding (tested: below 20%): human CD33 P46D | human CD33 N20V | human CD33 N20E | human CD33 F21I | human CD33 W22L | human CD33 N20T | human CD33 N20W | human CD33 P19D | human CD33 N20Y | human CD33 N20G | human CD33 N20Q | human CD33 P46Y | human CD33 P46R | human CD33 P46F | human CD33 F21S | human CD33 W22N | human CD33 N20P
